Source: article PMC9370829 (Nature, 2022)

B1: UvrA, individually purified (natural protein, E. coli, UniProt P0A698 1-940, looked up)
chain: MDKIEVRGARTHNLKNINLVIPRDKLIVVTGLSGSGKSSLAFDTLYAEGQRRYVESLSAYARQFLSLMEKPDVDHIEGLSPAISIEQKSTSHNPRSTVGTITEIHDYLRLLFARVGEPRCPDHDVPLAAQTVSQMVDNVLSQPEGKRLMLLAPIIKERKGEHTKTLENLASQGYIRARIDGEVCDLSDPPKLELQKKHTIEVVVDRFKVRDDLTQRLAESFETALELSGGTAVVADMDDPKAEELLFSANFACPICGYSMRELEPRLFSFNNPAGACPTCDGLGVQQYFDPDRVIQNPELSLAGGAIRGWDRRNFYYFQMLKSLADHYKFDVEAPWGSLSANVHKVVLYGSGKENIEFKYMNDRGDTSIRRHPFEGVLHNMERRYKETESSAVREELAKFISNRPCASCEGTRLRREARHVYVENTPLPAISDMSIGHAMEFFNNLKLAGQRAKIAEKILKEIGDRLKFLVNVGLNYLTLSRSAETLSGGEAQRIRLASQIGAGLVGVMYVLDEPSIGLHQRDNERLLGTLIHLRDLGNTVIVVEHDEDAIRAADHVIDIGPGAGVHGGEVVAEGPLEAIMAVPESLTGQYMSGKRKIEVPKKRVPANPEKVLKLTGARGNNLKDVTLTLPVGLFTCITGVSGSGKSTLINDTLFPIAQRQLNGATIAEPAPYRDIQGLEHFDKVIDIDQSPIGRTPRSNPATYTGVFTPVRELFAGVPESRARGYTPGRFSFNVRGGRCEACQGDGVIKVEMHFLPDIYVPCDQCKGKRYNRETLEIKYKGKTIHEVLDMTIEEAREFFDAVPALARKLQTLMDVGLTYIRLGQSATTLSGGEAQRVKLARELSKRGTGQTLYILDEPTTGLHFADIQQLLDVLHKLRDQGNTIVVIEHNLDVIKTADWIVDLGPEGGSGGGEILVSGTPETVAECEASHTARFLKPML

Legend:
cross-linking = target: the molecule itself; assay: cross-linking
[1] = target: B1; assay: cross-linking

Binder	binding result (cross-linking)	binding result [1]
B1	binds	–
UvrB, individually purified (natural protein, E. coli, UniProt P0A8F8 1-673, looked up) MSKPFKLNSAFKPSGDQPEAIRRLEEGLEDGLAHQTLLGVTGSGKTFTIANVIADLQRPTMVLAPNKTLAAQLYGEMKEFFPENAVEYFVSYYDYYQPEAYVPSSDTFIEKDASVNEHIEQMRLSATKAMLERRDVVVVASVSAIYGLGDPDLYLKMMLHLTVGMIIDQRAILRRLAELQYARNDQAFQRGTFRVRGEVIDIFPAESDDIALRVELFDEEVERLSLFDPLTGQIVSTIPRFTIYPKTHYVTPRERIVQAMEEIKEELAARRKVLLENNKLLEEQRLTQRTQFDLEMMNELGYCSGIENYSRFLSGRGPGEPPPTLFDYLPADGLLVVDESHVTIPQIGGMYRGDRARKETLVEYGFRLPSALDNRPLKFEEFEALAPQTIYVSATPGNYELEKSGGDVVDQVVRPTGLLDPIIEVRPVATQVDDLLSEIRQRAAINERVLVTTLTKRMAEDLTEYLEEHGERVRYLHSDIDTVERMEIIRDLRLGEFDVLVGINLLREGLDMPEVSLVAILDADKEGFLRSERSLIQTIGRAARNVNGKAILYGDKITPSMAKAIGETERRREKQQKYNEEHGITPQGLNKKVVDILALGQNIAKTKAKGRGKSRPIVEPDNVPMDMSPKALQQKIHELEGLMMQHAQNLEFEEAAQIRDQLHQLRELFIAAS	–	binds
